US20160305947A1 (Merck Sharp & Dohme, published 2016)

Molecular target: T1, human PD-L1 (Programmed Cell Death 1 Ligand 1) (human, UniProt Q9NZQ7 19-290)
T1 construct: whole, on cells; The target is the endogenous protein in FFPE tumor tissue after antigen retrieval, not a recombinant construct; also called B7-H1; PDCD1L1
Assay: IHC staining of FFPE human melanoma sections (chromogenic DAB and TSA fluorescence)
Procedure: After deparaffinization, antigens were retrieved by immersing the slides into Flex TRS (high pH) and allowing the temperature inside the PT Link to reach 97° C. for 20 minutes. Once this time elapsed, the chamber temperature was cooled to 75° C. Slides were removed from the PT Link and cooled to room temperature in Flex wash buffer.
Single parameter chromogenic immunohistochemical staining was performed using a mouse monoclonal anti-PD-L1 antibody (clone 22C3) and the brown DAB chromogen (FIG. 1, left column) Multiparametric fluorescence immunohistochemistry was performed using the protocol detailed in Example 1. In brief, formalin-fixed paraffin-embedded sections were stained using an anti-PD1 antibody (polyclonal goat anti-hPD-1, green) and an anti-PD-L1 antibody (clone 22C3, red). Representative patterns of PD-1 and PD-L1 are depicted in the images in the right-hand column. […] PD-L1 can be identified as being either (1) spatially apart from PD-1+ T cells (A, right); (2) associated with a minimal PD-1+ infiltrate (B, right); (3) expressed in the absence of concomitant PD-1+ T cells (C, right); or (4) strongly expressed in tight spatial proximity to PD-1+CD8 T cells (D, right).

T1 sequence (Q9NZQ7 19-290): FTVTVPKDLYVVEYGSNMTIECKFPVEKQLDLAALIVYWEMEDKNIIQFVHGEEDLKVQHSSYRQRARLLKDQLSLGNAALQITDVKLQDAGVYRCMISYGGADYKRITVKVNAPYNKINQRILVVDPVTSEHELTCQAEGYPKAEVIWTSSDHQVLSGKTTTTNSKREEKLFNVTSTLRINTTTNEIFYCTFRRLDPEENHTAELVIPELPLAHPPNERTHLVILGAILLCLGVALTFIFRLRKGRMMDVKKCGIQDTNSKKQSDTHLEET

B1: Mouse anti-human PD-L1 mAb (Clone 22C3) (antibody, mouse IgG1, kappa, V domains shown)
VH: QVHLQQSGAELAKPGASVKMSCKASGYTFTSYWIHWIKQRPGQGLEWIGYINPSSGYHEYNQKFIDKATLTADRSSSTAYMHLTSLTSEDSAVYYCARSGWLIHGDYYFDFWGQGTTLTVSS
VL: DIVMSQSPSSLAVSAGEKVTMTCKSSQSLLHTSTRKNYLAWYQQKPGQSPKLLIYWASTRESGVPDRFTGSGSGTDFTLTISSVQAEDLAVYYCKQSYDVVTFGAGTKLELKR
notes: Mouse IgG1, made in house, used at 2 ug/mL as the primary antibody in IHC; also called antibody 22C3; mouse monoclonal anti-PD-L1 antibody (clone 22C3)
- binding result: binds
